Test results taken from article PMC12049551, “Labelizer: systematic selection of protein residues for covalent fluorophore labeling” (Nature Communications, 2025).
Like-named read-outs stand apart in the source and are kept apart here.

How the values were obtained:
[1] = Isothermal titration calorimetry (ITC) of PBP variants with inorganic phosphate; type: binding, E. coli; settings: 25 °C, unlabeled protein, mean ± SD from n = 2 protein preparations
Method: Protein from a diluted solution was concentrated to ~ 30 µM using a Viva Spin 6 concentrator with a 10 kDa MWCO. The filtrate was used to prepare the phosphate solution at 450 µM. The reaction cell was filled with the protein solution and titrated in 19 steps of 2 µl each of phosphate solution in 160 s intervals. A baseline control was obtained from measurements made with protein-free filtrate in the reaction cell, and this baseline was subtracted from the experimental thermograms. Data were fitted to a single binding site model using the Setup MicroCal PEAQ-ITC Analysis Software provided by the manufacturer.

[2] = design: method as in PMID 26199994; settings: cited from earlier work

Row | Molecule | Kd [1] [µM] | Kd ([2]; wild-type affinity for inorganic phosphate) [µM] | reduction of affinity for inorganic phosphate compared to wild-type ([2]; I76G mutation) [fold]
1 | PBP (S3C-I76G-P86C): double-cysteine variant of E. coli phosphate binding protein PBP with additional I76G mutation (protein, UniProt P0AG82 26-346, looked up, variant S3C I76G P86C) Phosphate-binding protein PstS: EACLTGAGATFPAPVYAKWADTYQKETGNKVNYQGIGSSGGVKQIIANTVDFGASDAPLSDEKLAQEGLFQFPTVGGGVVLAVNICGLKSGELVLDGKTLGDIYLGKIKKWDDEAIAKLNPGLKLPSQNIAVVRRADGSGTSFVFTSYLAKVNEEWKNNVGTGSTVKWPIGLGGKGNDGIAAFVQRLPGAIGYVEYAYAKQNNLAYTKLISADGKPVSPTEENFANAAKGADWSKTFAQDLTNQKGEDAWPITSTTFILIHKDQKKPEQGTEVLKFFDWAYKTGAKQANDLDYASLPDSVVEQVRAAWKTNIKDSSGKPLY | 10 ± 5 |  | 
2 | wild-type: wild-type E. coli phosphate binding protein PBP (phoS gene) (protein, UniProt P0AG82 26-346, looked up) Phosphate-binding protein PstS: EASLTGAGATFPAPVYAKWADTYQKETGNKVNYQGIGSSGGVKQIIANTVDFGASDAPLSDEKLAQEGLFQFPTVIGGVVLAVNIPGLKSGELVLDGKTLGDIYLGKIKKWDDEAIAKLNPGLKLPSQNIAVVRRADGSGTSFVFTSYLAKVNEEWKNNVGTGSTVKWPIGLGGKGNDGIAAFVQRLPGAIGYVEYAYAKQNNLAYTKLISADGKPVSPTEENFANAAKGADWSKTFAQDLTNQKGEDAWPITSTTFILIHKDQKKPEQGTEVLKFFDWAYKTGAKQANDLDYASLPDSVVEQVRAAWKTNIKDSSGKPLY |  | 0.07 | 
3 | PBP (I76G): cysteine-less PBP variant with only the I76G mutation (protein, UniProt P0AG82 26-346, looked up, variant I76G) Phosphate-binding protein PstS: EASLTGAGATFPAPVYAKWADTYQKETGNKVNYQGIGSSGGVKQIIANTVDFGASDAPLSDEKLAQEGLFQFPTVGGGVVLAVNIPGLKSGELVLDGKTLGDIYLGKIKKWDDEAIAKLNPGLKLPSQNIAVVRRADGSGTSFVFTSYLAKVNEEWKNNVGTGSTVKWPIGLGGKGNDGIAAFVQRLPGAIGYVEYAYAKQNNLAYTKLISADGKPVSPTEENFANAAKGADWSKTFAQDLTNQKGEDAWPITSTTFILIHKDQKKPEQGTEVLKFFDWAYKTGAKQANDLDYASLPDSVVEQVRAAWKTNIKDSSGKPLY | 19 ± 6 |  | ~200
